Reference: the DeepSol protein solubility set

Assay: soluble on expression in E. coli; label from the status in PepcDB or PDB records
For “MLPKYEQIKQDLLREIKNHTFIPGDKFYSEADIKRKYAVSSITAVKALNELTSAGYLYRIQGKGTFVSKSKVSQNVKFSDIELHSLDSEKVKVLSIEEDNQAEILKELGLPANASYYRIKRVRYSEDTPFLVHITHLPKKLVKEPLSKDLTAYASVYERVRKDFSVDLFSLASVETNEIVFPEDAELLNLLQLSFREPAVKQVKHSYLADGSVAEYIISYKHWKYFKTKIEVEAE”, the “soluble on expression in E. coli” value was “not soluble”. In the case of “MLPLIKRLFSSAPKDGEGAQKKWPFSYVVVLLLAGVALMAASHWANSGEEAEAKPSAGQPSAPAEPAFLASKETKEKVIAAYEERYEKELKAALEAIEGVDDVTVVVNLDSTELKLYEKKRSTQQQTTEESDKEGGKRTIENESTNEEVIIIHNGEEETPLVVATKKPDIRGVLVVAKGADNLQIKKWIVEAVTRVLNVPSYRVAVLPKK”, the “soluble on expression in E. coli” value is reported as “not soluble”. For “MLPSHRSPDSATHDRIRKMTMNAMPQTAAQNETLHTCSIIVDDAQDFSPMLLDAGRDDTLISESMIPQIRTVAALIAAERHDFSRSSPAEFTDAADFFAARILVLGVRRFHLDVSLLQILKTANSRARRFAEKHRLFFTPAQAELSLNKHKNRRLLTVETEHEVENKGNPVANSLAFVRKLHTLPL”, the “soluble on expression in E. coli” value was “not soluble”. For “MLPSQHKLSNSEQFRATIRKGKRAGRSTVVLHFYAEATAGNLATAGGPRFGLVVSKAVGNAVTRHRVSRQLRHVVIAMKDQFPASSHVVVRALPPAATASSEELRADVQAALDKLNRKR”, the “soluble on expression in E. coli” value was “not soluble”. In the case of “MLPVTYRLIPQSGVSTYRLNTADTPVFPDIPEHAPNPSRLRLAHDSLAINSEFRLEPECVVEYLISGAGGIDPDTEIDDDTYDECYDELSSVLQNAYTQSETFRRLMNYAYEKELHDVEQRWLLGAGEAFETTVAQEHFKLSEGRKVICLNLDDSDDSYTEHYESNEGRQLFDTKRSFIHEVVHALTHLQDKEENHPRGPVVEYTNIILKEMGHPSPPRMVYIFNK”, the “soluble on expression in E. coli” value is reported as “not soluble”. In the case of “MLQKPKSVKLRALRSPRKFGVAGRSCQEVLRKGCLRFQLPERGSRLCLYEDGTELTEDYFPSVPDNAELVLLTLGQAWQGYVSDIRRFLSAFHEPQVGLIQAAQQLLCDEQAPQRQRLLADLLHNVSQNIAAETRAEDPPWFEGLESRFQSKSGYLRYSCESRIRSYLREVSSYPSTVGAEAQEEFLRVLGSMCQRLRSMQYNGSYFDRGAKGGSRLCTPEGWFSCQGPFDMDSCLSRHSINPYSNRESRILFSTWNLDHIIEKKRTIIPTLVEAIKEQDGREVDWEYFYGLLFTSENLKLVHIVCHKKTTHKLNCDPSRIYKPQTRLKRKQPVRKRQLEHHHHHH”, the “soluble on expression in E. coli” value is reported as “not soluble”. With “MLQLFSFLAIFYISLSNCDPQILRLKSIPSPIPNVEEGAKLYLASNDDNGLLKNIQVQTAGGSFTLDQINVNTANGNAKSIVIDGGLVISTSNSNADTSGLTGFLYLTTKKQADDPAFSVYVIKQAQTVSTTQPNSTVVILNTELDNDAFFDHIEPLQIGLDYWYFTASEPMSMTMESKYVSDLVYTTTSVNTTGLVVNDFLFQEHVVKFQLDLTRVRTIGTLVSAIPIASQINVIFNQGGGISAQR” the “soluble on expression in E. coli” value was “not soluble”. In the case of “MLQPPFNIKVTNITLTTAVVTWQPPILPIEGILVTFGRKNDPSDETTVDLTSSITSLTLTNLEPNTTYEIRIVARNGQQYSPPVSTTFTTGSLEHHHHHH”, the “soluble on expression in E. coli” value is reported as “soluble”. For “MLRFGFAAVLLVLAGCSAPMGPEALGPGSYQAAPDPGPFLTPADAQRAFPAVVARVEPVAEAICRERTRGVPCDFQIAVDARPGLDPNAFQTLDDYGRPVIGLTLSLISDARNVDELAFVVGHETAHHILGHIPRQRETALTGAVLAGVLAQMGGADAQTIRSVQEFGANVGARSYSKNFELEADGLGTEIAIRAGYDPVHGAQFFTRLPDPGDTFLGSHPPNAQRIAAVRRAAESIGYVSAWLEHHHHHH”, the “soluble on expression in E. coli” value was “not soluble”. In the case of “MLRHLGQLSVAHRGSGLHDAYVVNPAQQLDPELAPPPVVYVLETSYVALLLKNPEDVGYQLARRHDYCFALAPHLCILYSRHRVCERVKHHHSHPPPATCSS”, the “soluble on expression in E. coli” value is reported as “soluble”. In the case of “MLRIAYRLLWRALLPFALLRLWWRGRKEPGYRQHVGERLGFYRPRANPDHPLLWVHAVSVGETRAAQPLIDALLARFPQHDVLLTHMTPTGRRTGAEFAAQRNGRVIQAYLPYDLAGAVDRFLRHFQPRLGLLMETEIWPVLIERAHHAGVPMVLVNGRLSERSHRRTARLGQAARETYAQLAAVLAQTPDDADRYRSLGVPRVRVTGNLKFDITPHVDQIMMGRALRDALGGRAVWVAASTREGEEPLLLDAWHAHRAQHAGRRHPLLILVPRHPQRFDEVAQLAGLKGLRVARRSALSLSAAEAPDAAGVLDADILLGDSMGEMALYYAAAQAAFIGGSLLPMGGQNLIEACAVGTPVVIGPHTFNFAQATRDAVAAGACVQVEDAACAVRVIDQWLSDADAREAASRAALAFAATHGGATARTVEAVASLVLPSLLEHHHHHH”, the “soluble on expression in E. coli” value is reported as “not soluble”. For “MLRISRDLVIDEDDIEIGFVRASGPGGQNVNKVATSAQLRFDTRKLTLPEDATIRLARIAGQRMTKDGVIVIHAQRFRTQERNRQDAIDRLVEILSEALEHHHHHH”, the “soluble on expression in E. coli” value was “not soluble”. With “MLRLARKGLQTAVVRSYAKDVKFGAEGRQAMLVGVNLLADAVSVTMGPKGRNVIIEQSWGSPKITKDGVTVAKSIDLKDKYQNLGAKLIQDVANKANEEAGDGTTCATVLARAIAKEGFESIRQGGNAVEIRRGVMNAVEVVVAELKKISKKVTTPEEIAQVATISANGDTVVGNLISDAMKKVGTTGVITVKDGKTLNDELELIEGMKFDRGYISPYFITSAKGAKVEYEKALVLLSEKKISQVQDIVPALELANKLRRPLVIIAEDVDGEALTTLVLNRLKVGLQVVAIKAPGFGDNRKNTLKDMGIATGATIFGDDSNLIKIEDITANDLGEVDEVTITKDDTLLLRGRGDQTEIEKRIEHITDEIEQSTSDYEKEKLNERLAKLSKGVAVLKIGGGSEVEVGEKKDRVTDALCATRAAVEEGIVPGGGVALLRSLTALKNYKAANEDQQIGVNIVKKALTQPIATIVKNAGLEPSSIIDEVTGNSNTSYGYDALNGKFVDMFEAGIIDPTKVVRTALQDASGVASLLATTECVVTEIPKEEAVGGPAGGMGGMGGMGGMGGMGF” the “soluble on expression in E. coli” value was “not soluble”. In the case of “MLRLRTPSRIHITLIDLNGSIGRVDGGVGLALEEPHIEIKAKESETFVLKGEPINRERFEIAAAKMAEYCGRGAEIEVVSDYDAHVGLGSGTQISLAVGRAFSELYGLNLTTRQIAEIMGRGGTSGIGVAVFDHGGLVVDGGHSTKEKKSFLPSSASRAKPAPMIARLDFPDWNVVLAIPDLKGFFGEREVNLFQKSCPVPLEDVREICHLILMKMLPAVVEADLDEFGKALKRIQELGFKKAEVEQYGELIKGCFDLADCIGMSSTGPTVYAITDSNAGGIERSLRDYFAEKGYECRTIVTKARNRGVEIEV”, the “soluble on expression in E. coli” value is reported as “not soluble”. In the case of “MLRPVETPTREIKKLDGLWAFSLDRENCGIDQRWWESALQESRAIAVPGSFNDQFADADIRNYAGNVWYQREVFIPKGWAGQRIVLRFDAVTHYGKVWVNNQEVMEHQGGYTPFEADVTPYVIAGKSVRITVCVNNELNWQTIPPGMVITDENGKKKQSYFHDFFNYAGIHRSVMLYTTPNTWVDDITVVTHVAQDCNHASVDWQVVANGDVSVELRDADQQVVATGQGTSGTLQVVNPHLWQPGEGYLYELCVTAKSQTECDIYPLRVGIRSVAVKGEQFLINHKPFYFTGFGRHEDADLRGKGFDNVLMVHDHALMDWIGANSYRTSHYPYAEEMLDWADEHGIVVIDETAAVGFNLSLGIGFEAGNKPKELYSEEAVNGETQQAHLQAIKELIARDKNHPSVVMWSIANEPDTRPQGAREYFAPLAEATRKLDPTRPITCVNVMFCDAHTDTISDLFDVLCLNRYYGWYVQSGDLETAEKVLEKELLAWQEKLHQPIIITEYGVDTLAGLHSMYTDMWSEEYQCAWLDMYHRVFDRVSAVVGEQVWNFADFATSQGILRVGGNKKGIFTRDRKPKSAAFLLQKRWTGMNFGEKPQQGGKQ”, the “soluble on expression in E. coli” value is reported as “soluble”. For “MLRTQFEEELLNLHNQFYEMGMMVSSAVHKSVKAYINHDKKLAQEVIDRDIEINDMEVKLEKKSFEMIALQQPVTTDLRMIITVMKASSDLERMADHAVSIAKSTIRLKGETRIPEIEKEISDMSDYVKKMVDNVLIAYVKTDQKDARMIAQMDDRTNEYFDSIYKHAVEAMKANPETVISGTDYLHVAQYLERIGDYVTNICEWIVYLATGKITELNSNRDEQF”, the “soluble on expression in E. coli” value was “not soluble”. With “MLRVLIVDDEMLARDELAYLLKRTNDEMEINEAENIESAFDQMMDQKPDLLFLDVDLSGENGFDIAKRLKKMKHPPAIVFATAYDQYALKAFEVDALDYLTKPFDEERIQQTLKKYKKVNRDIVETEQNSHAGQHKLALSVGESIVIVDTKDIIYAGTEDGHVNVKTFDHSYTVSDTLVVIEKKLPDSDFIRVHRSFVVNTEYIKEIQPWFNSTYNLIMKDGSKIPVSRTYAKELKKLLHI” the “soluble on expression in E. coli” value was “not soluble”. With “MLSFVIPAHDEAALIGDTLQCLHACAQAMQLDHEVIVVADACEDATAAIARSHGAQVLEVLEVQLRHIAATRNAGAQAAQGEHLLFLDADTSINPQVVGAALAALDAGAVGGGARVHLQGKRVWSERVAQAVFGWFFRVSGIAPGCFLFCTRAAFVSAGGFDTRYYAGEDVALSRALARCGRFVILRQTVHTSDRKLRSFSKREHLGLLLRFLWRGRRMLQTRDALGFWYQRRRLEHHHHHH” the “soluble on expression in E. coli” value was “not soluble”. With “MLSIVCPPLSAQWAENFDHITALTSPPWRGQIADFAIIKKQLKLYVEYPDDLNESRIAITVPYFKTTTWKGDVKLDFRPTINNYLYCYLYCYGEISDSEFDYVALRWGSGSKGVDLLDVRLRVLPSGESSIVRSDILIDGSAYPLGTKPFTSFTVTYAVGSGWQLWVNGANDTGNETVLIGSSSFDVESPFQSGGLGIDCFYTKSRSKAFSFDNLSVSEGAVSPPEEEEEPIPLGKPTLNELMANPLEGGSEYIELYNPTDKPVVPSKFAIGILRNGSYTTTTALPTVADTLYPGQYIVFAKKSEGVTDFYPQAQNVVTMSNLPQLANKGFTIGLFEEGLDQPLEEVVYSPKMLGEGNVTRRGVSLERISFETPASDPTNWAGGLPSAGYATPGYLNSQSSNADTTQLGLPNNETEGNGKSYLPPASIAEE” the “soluble on expression in E. coli” value was “not soluble”. In the case of “MLSKKELAIITFLIHHKEQFVSSATLAEVIGMSDRTVRKYLKELISSLPEHGAHIISKQGRGYCLEIDHSMAFDIFWQESVTSKKRLADVTQVEESVDREDYVLHKFFFEDAVQDFEELCQELYISRTTLKHVLAGIKERIIPYQLELEITHQHIQIRGKEEDIRHFIMDYFFVTSFDNTLSTMVGNTFLEGINFAEIMIIVLDECRDAKLKLSDFVMNNLVLHIALMVQRIRSGCPLELFSIPIAIRQSDEYQVALRILYRVEEVMGIRFPKEEANYIALHLKVKHSVGKHWQDDNTDEKLQDHLKACIAKISQLTGMTLETDTNLFQGLLAHMMPLTIRLENHIQLTNPLTEEIKSQYPEIFTLTKQTFSDLLVCQKNDVSDDEWAYISLHLMAAIERYSNRHKLRVLVVCATGYGSAMMLKNRLEKEFEGRLRIVDVISYYEITEERLKTVDLIISSISLANLMFLTPVITVSVFLSNQDIETIRQFIGEQEGIKKEVSLPSQMSLAKAEQLLTGVFSPNRFLYLDEKISKEDLLLRMIACLDEAGTETFVEDFYHQMVLRENYSPVIYGEVLAFPHPANPMTYSEQVVVVICREPLEWDKAHQAVHFVFLLSPSKGHNHRLKYVSPGLASFVNQVELQQALLEEPNYSKFMTVFTPLIHD”, the “soluble on expression in E. coli” value is reported as “not soluble”. With “MLSKVQCILNRRTMADVDVDVPSAAPVLDGAMDINTALQEVLKKSLIADGLVHGIHQACKALDKRQAVLCILAESFDEPNYKKLVTALCNEHQIPLIRVDSHKKLGEWSGLCKIDKEGKPRKVCGCSVVVIKDFGEETPALDVVKDHLRQNSLEHHHHHH” the “soluble on expression in E. coli” value was “not soluble”. In the case of “MLSSKEVYARLDAILPSSVDREDAESNLNAGEIEYAITALLDDAYTSVGLSDAVVSLIRENYDDGPVIDMLDALLYFQKLNSGGDAVRMQR”, the “soluble on expression in E. coli” value is reported as “not soluble”.
